The test concerns the target CLDmut (CD4-linker-DC-SIGN fusion protein with a linker of 8 Gly4Ser repeats and the Cys-to-Ser back (human) (UniProt P01730)). In words: BLI. A general note: In BLI a coated tip is dipped into the sample, and binding shifts an interference pattern.

In the case of “trimeric HIV-1 CN54 gp140 (domain or fragment)”, the Kd (in general, the constant that tells how readily two partners part at equilibrium) was found to be 0.39 nM; the off-rate (koff) – broadly, the first-order rate constant of dissociation – came to 1.62e-05 s⁻¹; the on-rate (kon) – broadly, the second-order rate constant of association – turned out to be 41100 M⁻¹ s⁻¹.

(Values after PMC9323411.)
